B1: His-tagged YohP (YohPHis) (natural protein, E. coli, UniProt C1P609 1-27, looked up)
chain: MKIILWAVLIIFLIGLLVVTGVFKMIF
notes: YohP, small membrane protein of E. coli, 27 amino acids; also called YohP_(His6); source: E. coli, expressed in vivo from pBad24 (arabinose) or pET19b (IPTG); whole cells TCA precipitated or cell fractions (INV); not shown: His6, C-terminal, kept
B2: YohP (nontagged) (natural protein, E. coli, UniProt C1P609 1-27, looked up)
chain: MKIILWAVLIIFLIGLLVVTGVFKMIF
notes: YohP, small membrane protein of E. coli, 27 amino acids; also called nontagged YohP; source: E. coli C43(DE3) with pET19b-YohP, expressed in vivo, pulse-labelled with 35S methionine/cysteine; whole cells or cell fractions

Legend:
[1] = target: the molecule itself; experiment: SDS-resistant dimer on SDS-PAGE; YohPHis expressed in vivo; whole cells or cell fractions (INV), Tricine-SDS-PAGE, western blot with anti-His antibodies
[2] = target: the molecule itself; experiment: SDS-resistant dimer on SDS-PAGE; in vivo expression, 35S pulse-chase labelling with rifampicin; whole cells or fractions TCA precipitated, Tricine-SDS-PAGE, autoradiography

Protein | stoichiometry N [1] | stoichiometry N [2]
B1 | 2 | –
B2 | – | 2

Source: article PMC7549839, “Posttranslational insertion of small membrane proteins by the bacterial signal recognition particle” (PLoS Biology, 2020)
